Measured values reported in publication PMC4609290 (Molecular cell, 2015).

Legend:
[1] = target: T1, AF10PZP (Homo sapiens, UniProt P55197); assay: Binding of minimal H3 peptide to the PZP domain; details: Figure S1D
T1 sequence (P55197 18-208 isoform P55197-1): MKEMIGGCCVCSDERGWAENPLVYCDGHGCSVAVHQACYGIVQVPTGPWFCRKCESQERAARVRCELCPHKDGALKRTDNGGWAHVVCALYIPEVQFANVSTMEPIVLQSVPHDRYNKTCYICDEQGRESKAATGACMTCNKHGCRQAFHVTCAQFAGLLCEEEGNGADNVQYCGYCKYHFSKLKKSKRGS

[2] = target: T1, AF10PZP; assay: Histone peptide pull-down with AF10PZP; assay type: binding; details: biotinylated H3 peptides, Western blot; GST-AF10PZP
[3] = tested on: AF17PZP; assay: Histone peptide pull-down with AF17PZP; assay type: binding, human; details: biotinylated H3 peptides, Western blot
[4] = tested on: JADE1PZP; assay: Histone peptide pull-down with JADE1PZP; assay type: binding, human; details: biotinylated H3 peptides, Western blot
[5] = target: T1, AF10PZP; assay: ITC binding of H3 peptides to AF10PZP; details: standard deviation derived from nonlinear fitting

binding to AF10PZP (peptide pull-down) [2] | binding to AF17PZP (peptide pull-down) [3] | binding to JADE1PZP (peptide pull-down) [4] | Kd [5] | Substance | binding of minimal peptide to the PZP domain [1]
 |  |  |  | H3(1-36) peptide spanning residues A21 to K27: minimal peptide, segment of H3(1-36) spanning residues A21 to K27 (ATKAARK; UniProt P68431 22-28, looked up, fragment) | sufficient for binding, though with weaker affinity than the longer peptide
disrupted recognition | disrupted recognition |  |  | H3K27 acetylated: Acetylation of H3K27, H3 (aa 15-34) peptides | 
did not bind | did not bind | bound as expected |  | H3_1-21: peptide spanning amino acids 1-21 (H3_1-21; the very N-terminus of H3) | 
abolished | abolished |  | could no longer be detected | H3_15-34 di-methylation at K27: H3_15-34 peptide with di-methylation at K27 | 
